Laboratory results taken from publication PMC10621737.

T1: rMtbEspR (Mycobacterium tuberculosis H37Rv, UniProt P9WJB7 1-132)
T1 sequence: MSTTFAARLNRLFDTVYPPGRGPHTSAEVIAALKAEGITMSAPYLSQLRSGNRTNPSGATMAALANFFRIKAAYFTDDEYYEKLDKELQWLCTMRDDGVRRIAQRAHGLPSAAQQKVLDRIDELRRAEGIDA

B1: IL-4 promoter full EMSA probe (FL) (dsDNA)
DNA 1: CTATGCAAAGCAAAAAGCCAGCAGCAGCCCCAAGCTGATAAGATTAATCTAAAGAGCAAATTATGGTG
DNA 2: CACCATAATTTGCTCTTTAGATTAATCTTATCAGCTTGGGGCTGCTGCTGGCTTTTTGCTTTGCATAG
B2: IFN-gamma promoter EMSA probe (dsDNA)
DNA 1: GAATTTCGTTTTTCACTTGTTCCCAACCACAAGCAAATGATCAATGT
DNA 2: ACATTGATCATTTGCTTGTGGTTGGGAACAAGTGAAAAACGAAATTC
B3: HIV LTR EMSA probe (dsDNA)
DNA 1: CAGTTGAACCAGAGCAAGTAGAAGAGGCC
DNA 2: GGCCTCTTCTACTTGCTCTGGTTCAACTG

Molecular target: T1, rMtbEspR
Test: EMSA; poly(dI-dC) 50 ng/ml
Conditions: protein: recombinant; tags: N- and C-terminal 6xHis; chain copies: 2; label: 32P 5' end (T4 PNK); blunt

Binder	binding result
B1	binds
B2	no binding
B3	no binding
